Data published in the Human Domainome abundance scans (Beltran et al. 2025).
± gives the uncertainty stated by the source.

B1: Integrator complex subunit 12, residues 155 to 213; numbered along this chain, Q96CB8 (parent)
chain: AMEMGLACVVCRQMMVASGNQLVECQECHNLYHRDCHKPQVTDKEANDPRLVWYCARCT

Variants of: B1
Assay: abundance fitness (aPCA) (normalised: wild type 0, dead -1); higher = more abundant; growth selection in yeast, the domain comes from the species named
Conditions: Homo sapiens

Abundance fitness, by site and new letter:
C11: T -0.933 ± 0.061 | R -0.885 ± 0.061 | N -0.673 ± 0.04 | V -1.06 ± 0.07 | E -0.782 ± 0.13 | D -0.818 ± 0.064 | F -0.898 ± 0.046 | M -1.07 ± 0.14 | I -0.856 ± 0.049 | K -0.761 ± 0.092 | A -0.937 ± 0.078 | Y -1 ± 0.05 | Q -1 ± 0.1 | S -0.877 ± 0.046 | W -0.958 ± 0.12 | H -0.839 ± 0.055 | L -1.09 ± 0.057 | G -0.958 ± 0.06
H29: Y -0.182 ± 0.037 | L -0.275 ± 0.039 | G -0.016 ± 0.03 | T -0.216 ± 0.042 | C -0.185 ± 0.037 | D -0.26 ± 0.035 | F -0.19 ± 0.036 | N -0.117 ± 0.036 | R -0.053 ± 0.033 | W -0.426 ± 0.066 | K 0.084 ± 0.073 | P -0.612 ± 0.057 | V -0.438 ± 0.035 | M -0.097 ± 0.058
V16: A 0.042 ± 0.036 | I -0.089 ± 0.035 | L -0.022 ± 0.037 | E 0.029 ± 0.054 | S 0.011 ± 0.03 | T 0.044 ± 0.044 | R 0.019 ± 0.035 | Y -0.144 ± 0.035 | P -0.002 ± 0.05 | W -0.148 ± 0.055 | K 0.03 ± 0.065 | N 0.016 ± 0.036 | D 0.017 ± 0.036 | Q -0.013 ± 0.072 | G 0.037 ± 0.031 | F -0.02 ± 0.035 | C -0.029 ± 0.035
V10: Q -0.157 ± 0.061 | S -0.401 ± 0.034 | M -0.153 ± 0.06 | Y -0.202 ± 0.035 | P -0.627 ± 0.048 | R -0.347 ± 0.039 | N -0.191 ± 0.033 | W -0.381 ± 0.067 | K -0.242 ± 0.05 | T -0.46 ± 0.04
A17: L -0.179 ± 0.041 | V -0.075 ± 0.035 | S 0.006 ± 0.035 | R -0.03 ± 0.038 | E -0.04 ± 0.074 | P 0.005 ± 0.061 | Q 0.069 ± 0.09 | M -0.049 ± 0.061 | T -0.065 ± 0.044 | I -0.098 ± 0.038 | D -0.211 ± 0.044 | C -0.048 ± 0.038 | K 0.037 ± 0.06 | Y -0.091 ± 0.044 | W -0.388 ± 0.08 | N 0.001 ± 0.039 | F -0.233 ± 0.04
R12: V -0.463 ± 0.041 | E 0.007 ± 0.067 | M -0.081 ± 0.056 | Q 0.047 ± 0.068 | K 0.052 ± 0.053 | C -0.069 ± 0.039 | I -0.74 ± 0.044 | F -0.226 ± 0.034 | N 0.002 ± 0.034 | L -0.101 ± 0.035 | D 0.038 ± 0.041 | P -0.546 ± 0.049 | T -0.049 ± 0.041 | S 0.055 ± 0.031 | W -0.405 ± 0.066 | G 0.028 ± 0.037
M15: Y -0.025 ± 0.034 | R 0.023 ± 0.032 | Q 0.115 ± 0.071 | E -0.081 ± 0.07 | A 0.067 ± 0.037 | D 0.09 ± 0.035 | H 0.083 ± 0.042 | P 0.084 ± 0.046 | T 0.04 ± 0.039 | K 0.094 ± 0.064 | L -0.013 ± 0.036 | W -0.171 ± 0.048 | N 0.063 ± 0.034 | S 0.079 ± 0.03 | I 0.028 ± 0.034 | F -0.053 ± 0.033
Q21: Y -0.117 ± 0.039 | S 0.019 ± 0.035 | D -0.008 ± 0.041 | A -0.026 ± 0.049 | M 0.079 ± 0.085 | P -0.072 ± 0.082 | N -0.056 ± 0.042 | K -0.123 ± 0.067 | T 0.084 ± 0.057 | G -0.018 ± 0.035 | W -0.223 ± 0.065 | R 0.004 ± 0.045 | F -0.078 ± 0.04 | I -0.091 ± 0.046 | V -0.068 ± 0.041 | H 0 ± 0.05 | E -0.067 ± 0.062
Q26: L -0.111 ± 0.049 | R -0.008 ± 0.042 | F -0.062 ± 0.046 | T -0.052 ± 0.048 | Y -0.017 ± 0.051 | P -0.014 ± 0.06 | C -0.038 ± 0.049 | W -0.117 ± 0.065 | D -0.147 ± 0.068 | G 0.039 ± 0.053 | S -0.045 ± 0.039 | K -0.039 ± 0.062 | A 0.007 ± 0.046 | I -0.155 ± 0.043 | E -0.013 ± 0.086 | M -0.184 ± 0.08 | H -0.012 ± 0.077 | N 0.013 ± 0.051 | V -0.059 ± 0.043
L22: Q -0.297 ± 0.12 | P -0.115 ± 0.07 | V -0.003 ± 0.039 | W -0.113 ± 0.05 | H -0.001 ± 0.049 | G 0.013 ± 0.035 | Y 0.039 ± 0.04 | D -0.292 ± 0.048 | M -0.006 ± 0.074 | F 0.014 ± 0.036 | T -0.084 ± 0.049 | C -0.03 ± 0.035 | K 0.01 ± 0.078 | N -0.042 ± 0.045 | R -0.153 ± 0.037 | E -0.353 ± 0.097 | I -0.036 ± 0.042
V23: P -0.518 ± 0.046 | H -0.075 ± 0.044 | L 0.006 ± 0.032 | E -0.251 ± 0.067 | I 0.001 ± 0.034 | F -0.021 ± 0.033 | C -0.103 ± 0.032 | T -0.158 ± 0.042 | Y -0.046 ± 0.037 | D -0.296 ± 0.042 | Q -0.098 ± 0.06 | W -0.045 ± 0.055 | N -0.228 ± 0.037 | G -0.528 ± 0.038 | K -0.164 ± 0.055 | A -0.179 ± 0.039
Q13: I -0.147 ± 0.035 | S -0.033 ± 0.032 | A -0.088 ± 0.047 | K 0.011 ± 0.056 | C -0.125 ± 0.038 | W -0.758 ± 0.07 | T -0.089 ± 0.039 | L -0.088 ± 0.033 | M -0.132 ± 0.05 | H -0.043 ± 0.039 | G -0.17 ± 0.044 | N -0.024 ± 0.036 | F -0.354 ± 0.035 | Y -0.382 ± 0.036 | E -0.074 ± 0.087 | D -0.075 ± 0.046 | V -0.114 ± 0.041 | R -0.2 ± 0.043
M14: K 0.085 ± 0.055 | A 0.06 ± 0.043 | E 0.042 ± 0.059 | I 0.028 ± 0.042 | P -0.007 ± 0.14 | N 0.031 ± 0.036 | V 0.06 ± 0.035 | H -0.02 ± 0.11 | G 0.115 ± 0.033 | Q 0.082 ± 0.28 | Y 0.019 ± 0.036 | T 0.016 ± 0.064 | D 0.101 ± 0.037 | R 0.067 ± 0.046 | S 0.073 ± 0.032
S18: K 0.009 ± 0.056 | L -0.107 ± 0.035 | R -0.066 ± 0.036 | Y -0.183 ± 0.038 | D 0.043 ± 0.035 | M -0.078 ± 0.057 | T 0.037 ± 0.037 | W -0.34 ± 0.058 | I -0.129 ± 0.037 | P 0.077 ± 0.055 | A 0.017 ± 0.036 | F -0.124 ± 0.034 | G -0.002 ± 0.032 | E -0.001 ± 0.055 | V -0.102 ± 0.032 | C -0.135 ± 0.035 | N 0.015 ± 0.035 | H 0.014 ± 0.046 | Q 0.001 ± 0.062
G19: R -0.116 ± 0.039 | K 0.065 ± 0.078 | F -0.353 ± 0.05 | Y -0.167 ± 0.063 | H -0.072 ± 0.047 | S -0.044 ± 0.04 | N -0.014 ± 0.05 | E 0.058 ± 0.065 | I -0.137 ± 0.051 | Q -0.175 ± 0.11 | W -0.286 ± 0.065 | A -0.042 ± 0.042 | M -0.206 ± 0.078 | D 0.031 ± 0.042 | T -0.026 ± 0.068 | P -0.069 ± 0.095 | V -0.088 ± 0.035
E24: Y -0.493 ± 0.052 | N -0.308 ± 0.044 | W -0.563 ± 0.096 | S -0.236 ± 0.036 | K -0.205 ± 0.083 | L -0.376 ± 0.046 | G -0.3 ± 0.043 | I -0.387 ± 0.041 | F -0.459 ± 0.041 | T -0.157 ± 0.055 | Q -0.088 ± 0.086 | V -0.262 ± 0.039 | C -0.219 ± 0.043 | D -0.117 ± 0.045 | H -0.226 ± 0.056 | R -0.094 ± 0.049 | M -0.397 ± 0.085 | A -0.123 ± 0.049
C25: R -0.714 ± 0.084 | L -0.866 ± 0.09 | H -0.72 ± 0.11 | W -0.959 ± 0.25 | Q -0.458 ± 0.18 | P -0.869 ± 0.19 | T -0.622 ± 0.12 | E -0.824 ± 0.14 | V -0.819 ± 0.082 | G -0.66 ± 0.078 | M -0.792 ± 0.17 | I -0.906 ± 0.1 | S -0.662 ± 0.065 | D -0.655 ± 0.074 | N -0.773 ± 0.11 | K -0.915 ± 0.19
C28: N -0.561 ± 0.039 | S -0.68 ± 0.034 | V -0.845 ± 0.04 | G -0.519 ± 0.033 | Y -0.714 ± 0.04 | F -0.818 ± 0.052 | I -0.954 ± 0.054 | P -0.787 ± 0.081 | A -0.616 ± 0.049 | W -0.891 ± 0.058 | D -0.576 ± 0.043 | R -0.816 ± 0.042 | M -0.835 ± 0.064 | T -0.749 ± 0.052 | L -0.773 ± 0.048 | K -0.648 ± 0.072 | Q -0.801 ± 0.08 | H -0.664 ± 0.047 | E -0.845 ± 0.075
E27: A -0.044 ± 0.036 | Q -0.096 ± 0.083 | Y -0.208 ± 0.034 | V -0.184 ± 0.031 | T -0.036 ± 0.039 | L -0.105 ± 0.034 | R -0.001 ± 0.034 | F -0.143 ± 0.035 | C -0.107 ± 0.034 | M -0.103 ± 0.054 | P -0.67 ± 0.06 | G -0.043 ± 0.031 | S -0.007 ± 0.03 | K 0.087 ± 0.063 | D -0.049 ± 0.036 | N -0.009 ± 0.036
N20: G -0.05 ± 0.032 | Y -0.171 ± 0.034 | H -0.015 ± 0.038 | A -0.03 ± 0.035 | M -0.387 ± 0.069 | C -0.098 ± 0.035 | L -0.219 ± 0.035 | S -0.036 ± 0.03 | K 0.02 ± 0.072 | W -0.281 ± 0.062 | T -0.007 ± 0.038 | V -0.049 ± 0.032 | R -0.045 ± 0.038 | D 0.005 ± 0.036 | F -0.165 ± 0.035 | P -0.011 ± 0.048 | I -0.089 ± 0.035 | E -0.007 ± 0.075
N30: C 0.013 ± 0.044
